Assay results: the DeepSol protein solubility set

Test: soluble on expression in E. coli; label from the status in PepcDB or PDB records

With “MDVLSLLRVFGRRRRGLRDLEVSEPEFGDRPEYLEEYVRRFTSETGREEPELVEKIPSSMKNAREFNVIYPVGFGIFIHAYNDPLSESGYNKYVVVEPPRPPEDLVRLIDYKIALVLSEEDAPRSSEEKKRILLAALDKVVAVTSSERIAGGNGGNGSWQYAVKRGRIVIPERYYNYLKYHFIREKVGVGPLEPFLRDPYLEDISCNGVGPVYVVHKMFRSLESSVRFETEGELDDFILKLGEKIGKPISHARPVVDATLPDGSRINIVFGSDVSLKGSNFTIRKVSKIPISVTQLIKWGTFDARIAAYMWMMLEEGMSVFICGETASGKTTSLNAISVFIRPDAKIVTIEDTAEVVLPHPNWTRELTRNTGKPETSVTMFDLLRAALRQRPNYIIVGEIRGAEGNIAFQAMQTGHPVMATFHAANLSRLLQRLTNHPINVPKTNIDSLNIAWFQSAVHVKGFPARRVLEIDEIIGYDPSSGAIAAVPSFTWDPVRDKFIFSGRGASYLLEEKIATMKGIPRRELSIIYEELELRRRFLQTLVDKNILDYFDVYKAIVRAYNIGVEEALKRLERDELLS” as the sequence, how does the “soluble on expression in E. coli” value read?
Its value is “soluble”.

Which “soluble on expression in E. coli” value does the source give for “MAHHHHHHMNGLRISTYFSAFKMRWMLENVPKVEEARKRGTLCFGTIDAWLLWKLSGGKVFVTDVTNASRTFLMDIRTCKWSPELCDKLGIPMACLPEIRSNSELLTYVLSDEGGLSAALRHPTPIMGSIADQQGALLGNMCFKEGESKNTYGTGCFLLMTVGEKIRFSSHGLLSTVAYQIGNKSPFIYALEGSIAGAGATIEWLKNNMKLIDDVSDCEKFAQTVSDTHGVVFVPAFSGFLAPSWDPSARGSIFGMTLKTTRAHVLRAALLAIALQVVDVLEAMEKDAEVKVQFLRVDGGLTKNHLLMKMQSDLLGINLHRPTMAETTALGAALCAGLAAGVWKSLEEVKTISQQANVWRVIRPAASKDSQQMLRAQWKRAKQQAKWAKL” here?
Its value is “not soluble”.

With “MGSDKIHHHHHHMREKLFWILKKYGVSDHIAKAFLEIPREEFLTKSYPLSYVYEDIVLVSYDDGEEYSTSSQPSLMALFMEWVGLDKGMRVLEIGGGTGYNAAVMSRVVGEKGLVVSVEYSRKICEIAKRNVERLGIENVIFVCGDGYYGVPEFSPYDVIFVTVGVDEVPETWFTQLKEGGRVIVPINLKLSRRQPAFLFKKKDPYLVGNYKLETRFITAGGNLGNLLERNRKLLREFPFNREILLVRSHIFVELVDLLTRRLTEIDGTFYYAGPNGVVEFLDDRMRIYGDAPEIENLLTQWESCGYRSFEYLMLHVGYNAFSHISCSI” as the sequence, how does the “soluble on expression in E. coli” value read?
The value was “not soluble”.

With “MGSDKIHHHHHHMAVEKSTSIKNNSIKTVNVAVAVIHYQNQYLLGFRAASQHQGNRYEFVGGKIDAHETAKQALIREVAEETGINIANNTAVKLGRLHHDYGDKQVCLQVYRIEVTAQQYAQYKNLSCGLEGQKLTWVDKAKLLAGHYDLPAANKTILVWLQLPVQITITYPLAHFNGFPNPRAAWSQYHHEHIAADALVYMRIKVAGAEDSIERLLQLRSDIKAIAPDHLHTDKADNAVINRQIIAGHLTQTQLMQWSSSVAKESMSYSALSTNLPLIVSCHDADSINAANQLAFFRLQQQLPPVIGIFLAPVECTQTHPDTPPLGWEAWSKLAELADMPVIGLGGLSPVMSEQAMLHGGIAVAGIRQFLK” as the sequence, how does the “soluble on expression in E. coli” value read?
Its value is “not soluble”.

With “MGHHHHHHSHMEGSFSDGGALPEGLAEEAEPQGAAWSGDSGTVSQSHSSASGPWEDEGAEDGAPGRDLPLLRRAAAGYAACLLPGAGARPEVEALDASLEDLLTRVDEFVGMLDMLRGDSSHVVSEGVPRIHAKAAEMRRIYSRIDRLEAFVRMVGGRVARMEEQVTKAEAELGTFPRAFKKLLHTMNVPSLFSKSAPSRPQQAGYEAPVLFRTEDYFPCCSERPQL” as the sequence, how does the “soluble on expression in E. coli” value read?
The value was “not soluble”.

Which “soluble on expression in E. coli” value does the source give for “MSLSQQQKQVQKLAMTQQLQQSIQILQFNTEELAAFVEAKALENPLIDLQVDTQYTTDFPITSRSYTNQDEENNYMNQIPDYHLSLFESLIDQIHLNYRDTYLRTLVLFLVEYIDVNGYLTISLEEAAVKTEASAIQMLDALTLLQQLDPAGVGARNLQECLMLQTERDDTAPNLAYILLEEEFDALVSRKWGPLAKKFGIELAEIQLIFDYIQTLSPAPGNIFDATEELYIRPDLTVRIKEDRIVVISNKAGRPTLNFQENYFKRMQETDDKEVQEYIKDKKNEFEWLERAVNQRGDTILRVGQEIVRRQEAFFLEADRPLKPMTLKEIADALSIHESTVSRAVNGKYLETTFGVFELRSFFSTSILSSEEDGEDVSTTMVKKQLQKLIDQEVKSKPLSDQKLVERLKDSGMEISRRTVAKYREALGIPSSSKRKRYEEGHHHHHH” here?
The value was “soluble”.

Which “soluble on expression in E. coli” value does the source give for “PFTYSIEATRNLATTERCIQDIRNAPVRNRSTQFQLAQQNMLAYTFGEVIPGFASAGINGMDYRDVIGRPVENAVTEGTHFFRDDFRVDSNAKAKVAGDIFEIVSSAVMWNCAARWNSLMVGEGWRSQPRYSRPTLSPSPRRQVAVLNLPRSFDWVSLLVPESQEVIEEFRAGLRKDGLGLPTSTPDLAVVVLPEEFQNDEMWREEIAGLTRPNQILLSGAYQRLQGRVQPGEISLAVAFKRSLRSDRLYQPLYEANVMQLLLEGKLGAPKVEFEVHTLAPEGTNAFVTYEAASLYGLAEGRSAVHRAIRELYVPPTAADLARRFFAFLNERMELVNG” here?
Its value is “soluble”.

Which “soluble on expression in E. coli” value does the source give for “MARRNYQVERNKLEEKDPTWLMQKGQIQPLVSSLVVLNVEGERILARYTAKELFPTFDVEKKFEADLLKKSQTIPDLEENTGVFEHGQHIVVCRASEDLLFFVTSRIYENEVILSEVLTCWVDSLVKVLKNLPLNELNLLQHYEVLLLLVDELVDQEGVIMETDANELSSRTEFAMYSTDPRDLIPELTEQGFSHALQTAKQHLARTILK” here?
The value was “not soluble”.

For “MKPLKRHPALIGLSRDHHHSLSLCVRLLRTPEERHRDELEPHFSELETHFREEETKFAPIWQNVAPELKQRFEKDHARLRQMMASPEYGNAAWNTAFATTLRDHARFEERELFPAAEPFLPA”, which “soluble on expression in E. coli” value is on record?
The value was “not soluble”.

For “MKRLWQHCHAATLKGGKYSIVEDAALVTDGPLIHWIGPRAELPPGDYAERIDLGGAWLTPGLIDCHTHAVFGGNRSGEFEQRLEGVSYAEIAAAGGGIASTVRATREASEEELLASARKRLEPLLRDGVTALEIKSGYGLDLASERKMLRVIRRLGERLPATVRSTCLAAHALPPEYAGRADDYIEHICSTMLPALAGEGLVDAVDAFCEHLAFSPAQVERVFIAARELGLPVKLHAEQLSSLHGSSLAARYRALSADHLEYMTEDDARAMGEAGTVAVLLPGAFYLLRETQLPPIDALRRHGVAMAIASDLNPGTSPALSLRLMLNMACTLFRLTPEETLAGVTLHAARALGLEASHGSLEVGKLADFVAWDIERPAELAYWLGGDLPKRVIRHAEEVYRG”, which “soluble on expression in E. coli” value is on record?
The value was “not soluble”.

For “MAFEMAPADPTLDLNMQLTKLGHGLLSGKYSMPATQKDATTGDPRQEGIPPRMFKNVIAASHAEFSSMRQQDALDFFLHLVGKVERASNTTPDLDPSRSFKFGIEEKILCPSGKVGYNKREDCILSLNIPLHEATNKDELEAFHKQKAGKGLEENDMRSSDEIVRPRVPLEACLANFASSEPIEDYYSSALKGMTTAIKTTGLTSFPDYLVLHMRKFVMEEGWVPKKLDVYIDVPDVIDISHMRSKGLQPGEELLPDGVPEEVMESAQPVANEEIVAQLVSMGFSQLHCQKAAINTSNAGVEEAMNWLLSHMDDPDIDAPISHQTSDIDQSSVDTLLSFGFAEDVARKALKASGGDIEKATDWVFNNPNASVSDMDVSSSNSAQTPAQSGLPDGGGKYKLFGIVSHMGTSVHCGHYVAHILKEGRWVIFNDDKVGISTDPPKDMGYVYFFQRLD”, which “soluble on expression in E. coli” value is on record?
The value was “soluble”.

With “SLSSVNCIEQTTEWTACSKSCGMGFSTRVTNRNRQCEMLKQTRLCMVRPCEQEPEQPTDKKGKKCLRTKKSLKAIHLQFKNCTSLHTYKPRFCGVCSDGRCCTPHNTKTIQAEFQCSPGQIVKKPVMVIGTCTCHTNCPKNNEAFLQELELKTTRGKM” as the sequence, how does the “soluble on expression in E. coli” value read?
The value was “soluble”.

For “MDLMAYWLCITNEDNWKVIKEKKIWGVAERYKNTINKVKVGDKLIIYEIQRSGKDYKPPYIRGVYEVVSEVYKDSSKIFKPTPRNPNEKFPYRVKLKEIKVFEPPINFKELIPKLKFITNKKRWSGHLMGKAMREIPEEDYKLIVGN”, which “soluble on expression in E. coli” value is on record?
The value was “soluble”.

For “MGSDKIHHHHHHMNFAMTPEEAKTNEAYCRALIELLYQLADDDYIVAYRGSEWLGLAPHIEEDVAFSSITQNTMGHAVMFYELLEQLGEGDADTLAHERDPALRRNSVYLEKKNGSGTYLDEPHYDWALTVIRHFFYETFKKIRLEALTQSSYVPLAKAAQRVLMEQPYHLAHWKTWLCQLQQSTEEAKNRLMERIDEAWLEILDMLELGLKGGEMVEYQLITDEATIQQQWVKEMNKSLFYVPSQSLQKQEGNGRNGEHTDDLQQALSTCSEVYNSDRHAVW”, which “soluble on expression in E. coli” value is on record?
Its value is “not soluble”.

For “MSLAGKKIVLGVSGGIAAYKTPELVRRLRDRGADVRVAMTEAAKAFITPLSLQAVSGYPVSDSLLDPAAEAAMGHIELGKWADLVILAPATADLIARVAAGMANDLVSTICLATPAPVAVLPAMNQQMYRAAATQHNLEVLASRGLLIWGPDSGSQACGDIGPGRMLDPLTIVDMAVAHFSPVNDLKHLNIMITAGPTREPLDPVRYISNHSSGKMGFAIAAAAARRGANVTLVSGPVSLPTPPFVKRVDVMTALEMEAAVNASVQQQNIFIGCAAVADYRAATVAPEKIKKQATQGDELTIKMVKNPDIVAGVAALKDHRPYVVGFAAETNNVEEYARQKRIRKNLDLICANDVSQPTQGFNSDNNALHLFWQDGDKVLPLERKELLGQLLLDEIVTRYDEKNRR”, which “soluble on expression in E. coli” value is on record?
Its value is “soluble”.

With “MKLIPFPYPLNIGTDVVHLPRILRLINRPDYFHRFTRRILHEQEQRDFRTRFSLPPPSSGAEKTGLNPITPDMARWLAGRFAAKEAARKAAPAGASSLGWKDVIVRVGEADKGRPEIVYLDPMGCGETGGGRVGKLSISHDGDYVVATVLAAG” as the sequence, how does the “soluble on expression in E. coli” value read?
The value was “not soluble”.

For “MGSDKIHHHHHHMTQQNGKVYLVGAGPGDVAYLTVKAYNLLATAQVLVYDALVDEQLLQCVSPDCLKLDVGKRGGKPSTPQADINHLLVKYCQEGALVVRLKSGDPFIFGRCTSEIEALKAAGCKFEVVPGISSSIAAPLLAGIPLTDPVMSRCFAVLTAHEPEVLDWEALSRLDTLVILMGGKNLADIINELLRRGQSHLTPIAIIRWAGTPSQQIWTGQLGDILEQTRGLSLSPAVIVIGEVVGLRKYLQPEKIFPENSTTPMSSNQPLTGKTILVTRSSGQSSQFSDRLTTLGATVIEMPALEIGSPSSWEELDQAIANLSQFEWLILTSTNGVDYFFERLNLQGKDTRALAGVKIAVVGEKTSQSLKQRGIQADFIPPNFVADSLVEHFPESLLNKKILFPRVESGGREILVKELSAKGAEVIEVAAYQSCCPSSIPPAAELALKNHTIDIITFASSKTVQFFHQLVDNIFPHNIPNTLAGICIASIGPQTSKTCHTLLGRVDVEAEEYTLDGLTQSIINWALKV”, which “soluble on expression in E. coli” value is on record?
The value was “not soluble”.

Which “soluble on expression in E. coli” value does the source give for “RSLQLDKLVNEMTQHYENSVPEDLTVHVGDIVAAPLPTNGSWYRARVLGTLENGNLDLYFVDFGDNGDCPLKDLRALRSDFLSLPFQAIECSLARIA” here?
Its value is “soluble”.

For “MLFELLYTSIAPAGLSDTELLSILEKARAKNQALDITGMLVYHNREIMQILEGEELKVRGLFQTIFQDERHTSVEVFYQGNIDHRAFSEWSMAFKLLDENTVKKMLIGYENFNPAKSPISMIASSPNRGKKTFLKLRDSL”, which “soluble on expression in E. coli” value is on record?
The value was “soluble”.

Which “soluble on expression in E. coli” value does the source give for “MGARCSKLSVCWWPPHFKSPLLENGAAADDGSGVPVFAEYSLDELRVATDGFSPERIVSEHGEKAPNVVYRGTLFSTGRTVAIKRFGRSAWPDSRQFLEEAMAVGQLRSVRLANLIGCCCENGERLLVAEFMPHETLAKHLFHWETKPLSWAMRVRAAFYVAQALEYCSSKGRALYHDLHAYRVLFDVDGNPRLSCFGLMKNSRDGKSYSTNLAFTPPEYLKTGRVIPESVVYSFGTILLDLLSGKHIPPSHALDLIRGKNYLVLMDSCLEGHVSSSDGTELIRLASRCLQYEGRDRPNLKSVVSALGNLQKDASAPSHALLGIQHDKENTERISLSAIAKVYARADLDEVHEMLENDGYCEDERATFEVSFHSWTGQQVSDSILVKKHGDSAFQSKDFATAVECYSRFIDTGVMVSPTMLARRSFVYMVLGKLQEGLADAKKAADISPEWPTAHYLQGMAYLAMGMEPEGHEELKQGAALEAERNAR” here?
Its value is “soluble”.
